Test results reported in US20110262464A1, “Compositions, Kits, and Methods for the Diagnosis, Prognosis, and Monitoring of Cancer Using GOLPH3” (DANAFARBER CANCER INSTITUTE, INC., priority 2008, published 2011).

Test system: GOLPH3 localization at the Golgi in A549 cells
Experiment: Immunofluorescence of GOLPH3 localization
Format: cell-based, human
Conditions: A549 treated with EGF at specific time points
Experimental: For immunofluorescence studies, cells were cultured on cover slips, followed by fixation for 15 min at RT in 4% paraformaldehyde in PBS, permeabilization for 10 min RT in 0.1% Triton X-100/PBS and blocking 1 hr RT in 10% goat or donkey serum/PBS. Slides were incubated 1 hr RT with the following antibodies: mouse anti-HA (1:100, Cell Signaling); rabbit anti-TGN46 (1:500; Abcam), goat anti-VPS35 (1:200; Abcam) and mouse anti-GOLPH3 (1:300). Slides were stained for 1 hour RT with the corresponding Alexa Flour secondary antibodies (Invitrogen). Cover slips were stained with DAPI (Sigma) and mounted with mounting medium. Microscopic images were obtained with a Nikon inverted Ti microscope equipped with Yokogawa spinning disk confocal/TIRF system and a Hamamatsu Orca ER firewire digital CCD camera using constant exposure times for each channel in individual experiments. Images were compiled and false-colored with Adobe Photoshop using identical settings for each color. Magnification is 100× unless otherwise indicated.
In order to determine whether or not ARF4 might regulate GOLPH3 localization at the Golgi apparatus, ARF4 siRNA were transfected into A549 cells.

B1: EGF: epidermal growth factor (Invitrogen), 100 ng/ml for stimulation assays (protein, UniProt P01133 23-1207, looked up)
Pro-epidermal growth factor: PQHWSCPEGTLAGNGNSTCVGPAPFLIFSHGNSIFRIDTEGTNYEQLVVDAGVSVIMDFHYNEKRIYWVDLERQLLQRVFLNGSRQERVCNIEKNVSGMAINWINEEVIWSNQQEGIITVTDMKGNNSHILLSALKYPANVAVDPVERFIFWSSEVAGSLYRADLDGVGVKALLETSEKITAVSLDVLDKRLFWIQYNREGSNSLICSCDYDGGSVHISKHPTQHNLFAMSLFGDRIFYSTWKMKTIWIANKHTGKDMVRINLHSSFVPLGELKVVHPLAQPKAEDDTWEPEQKLCKLRKGNCSSTVCGQDLQSHLCMCAEGYALSRDRKYCEDVNECAFWNHGCTLGCKNTPGSYYCTCPVGFVLLPDGKRCHQLVSCPRNVSECSHDCVLTSEGPLCFCPEGSVLERDGKTCSGCSSPDNGGCSQLCVPLSPVSWECDCFPGYDLQLDEKSCAASGPQPFLLFANSQDIRHMHFDGTDYGTLLSQQMGMVYALDHDPVENKIYFAHTALKWIERANMDGSQRERLIEEGVDVPEGLAVDWIGRRFYWTDRGKSLIGRSDLNGKRSKIITKENISQPRGIAVHPMAKRLFWTDTGINPRIESSSLQGLGRLVIASSDLIWPSGITIDFLTDKLYWCDAKQSVIEMANLDGSKRRRLTQNDVGHPFAVAVFEDYVWFSDWAMPSVMRVNKRTGKDRVRLQGSMLKPSSLVVVHPLAKPGADPCLYQNGGCEHICKKRLGTAWCSCREGFMKASDGKTCLALDGHQLLAGGEVDLKNQVTPLDILSKTRVSEDNITESQHMLVAEIMVSDQDDCAPVGCSMYARCISEGEDATCQCLKGFAGDGKLCSDIDECEMGVPVCPPASSKCINTEGGYVCRCSEGYQGDGIHCLDIDECQLGEHSCGENASCTNTEGGYTCMCAGRLSEPGLICPDSTPPPHLREDDHHYSVRNSDSECPLSHDGYCLHDGVCMYIEALDKYACNCVVGYIGERCQYRDLKWWELRHAGHGQQQKVIVVAVCVVVLVMLLLLSLWGAHYYRTQKLLSKNPKNPYEESSRDVRSRRPADTEDGMSSCPQPWFVVIKEHQDLKNGGQPVAGEDGQAADGSMQPTSWRQEPQLCGMGTEQGCWIPVSSDKGSCPQVMERSFHMPSYGTQTLEGGVEKPHSLLSANPLWQQRALDPPHQMELTQ
modifications: Pro-epidermal growth factor
notes: epidermal growth factor (Invitrogen), 100 ng/ml for stimulation assays
- GOLPH3 localization at the Golgi: redistribution of GOLPH3 from the Golgi
